Where a chain is given by its changes, count along the chain named. Each block holds one binder with its values, some of them ahead of it.
Key:
[1] = target: T1, human CD38 expressed on cells (Daudi cells, human PBMC / T cells) (human, UniProt P28907 1-300); experiment: cell-based or functional assay
T1 sequence: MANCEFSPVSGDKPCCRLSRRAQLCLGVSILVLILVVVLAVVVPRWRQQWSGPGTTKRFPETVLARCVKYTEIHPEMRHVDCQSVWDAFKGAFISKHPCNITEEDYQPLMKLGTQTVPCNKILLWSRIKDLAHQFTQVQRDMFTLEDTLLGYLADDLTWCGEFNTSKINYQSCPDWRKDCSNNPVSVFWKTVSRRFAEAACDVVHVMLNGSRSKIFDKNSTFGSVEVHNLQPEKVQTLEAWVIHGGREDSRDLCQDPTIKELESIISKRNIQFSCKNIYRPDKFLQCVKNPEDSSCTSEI

[2] = target: T1, human CD38 expressed on cells (Daudi …); experiment: cell-based or functional assay; remark: listed apart in the source
[3] = target: T1, human CD38 expressed on cells (Daudi …); experiment: flow cytometry on human PBMC, gated on CD4-positive cells, fluorescent secondary antibody [lower panel (gated on CD4-positive cells]
[4] = target: T1, human CD38 expressed on cells (Daudi …); experiment: flow cytometry on human PBMC, gated on CD8-positive cells, fluorescent secondary antibody [upper panel (gated on CD8-positive cells]

- ADCC EC50 ug/ml, target Daudi cells, experiment 1 [1]: 0.011 µg/mL
- ADCC EC50 ug/ml, target Daudi cells, experiment 2 [1]: 0.0062 µg/mL
- ADCC target lysis EC50 [2]: 6.2 ng/mL
- ADCC target lysis Max. % lysis [2]: 49%
- EC50 (read off the curve) [3]: ~0.07 nM
- EC50 (read off the curve) [4]: ~0.07 nM
B1: aCD38-b-329 (antibody, human IgG1, V domains shown)
VH: QLQLQESGPGLVKPSETLSLTCTVSGGSISSSDYYWGWIRQPPGKGLEWIGSIYYSGSTYYNPSLKSRVTISVDTSKNQFSLKLSSVTAADTAVYYCARGQYSSGWYAYPFDMWGQGTMVTVSS
VL: EIVLTQSPGTLSLSPGERATLSCRASQSVRSSYLAWYQQKPGQAPRLLIYGASSRATGIPDRFSGSGSGTDFTLTISRLEPEDFAVYYCQQDGAVFTFGGGTKVEIK

- ADCC target lysis EC50 [2]: 2.4 ng/mL
- ADCC target lysis Max. % lysis [2]: 47%
B2: aCD38-b-329-m6 (antibody, IgG1, V domains shown)
VH: B1 VH
VL: B1 VL with G93E

- ADCC target lysis EC50 [2]: 3.5 ng/mL
- ADCC target lysis Max. % lysis [2]: 43%
B3: aCD38-b-329-m7 (antibody, IgG1, V domains shown)
VH: B1 VH
VL: B1 VL with G93S
